This is an account of results in publication PMC6436938 (Molecular Cell, 2019).

The target in the assay is importin β (Impβ) (human, UniProt Q14974 1-876). The experiment in a line: pull-down.
Chain of importin β (Impβ) (Q14974 whole entry): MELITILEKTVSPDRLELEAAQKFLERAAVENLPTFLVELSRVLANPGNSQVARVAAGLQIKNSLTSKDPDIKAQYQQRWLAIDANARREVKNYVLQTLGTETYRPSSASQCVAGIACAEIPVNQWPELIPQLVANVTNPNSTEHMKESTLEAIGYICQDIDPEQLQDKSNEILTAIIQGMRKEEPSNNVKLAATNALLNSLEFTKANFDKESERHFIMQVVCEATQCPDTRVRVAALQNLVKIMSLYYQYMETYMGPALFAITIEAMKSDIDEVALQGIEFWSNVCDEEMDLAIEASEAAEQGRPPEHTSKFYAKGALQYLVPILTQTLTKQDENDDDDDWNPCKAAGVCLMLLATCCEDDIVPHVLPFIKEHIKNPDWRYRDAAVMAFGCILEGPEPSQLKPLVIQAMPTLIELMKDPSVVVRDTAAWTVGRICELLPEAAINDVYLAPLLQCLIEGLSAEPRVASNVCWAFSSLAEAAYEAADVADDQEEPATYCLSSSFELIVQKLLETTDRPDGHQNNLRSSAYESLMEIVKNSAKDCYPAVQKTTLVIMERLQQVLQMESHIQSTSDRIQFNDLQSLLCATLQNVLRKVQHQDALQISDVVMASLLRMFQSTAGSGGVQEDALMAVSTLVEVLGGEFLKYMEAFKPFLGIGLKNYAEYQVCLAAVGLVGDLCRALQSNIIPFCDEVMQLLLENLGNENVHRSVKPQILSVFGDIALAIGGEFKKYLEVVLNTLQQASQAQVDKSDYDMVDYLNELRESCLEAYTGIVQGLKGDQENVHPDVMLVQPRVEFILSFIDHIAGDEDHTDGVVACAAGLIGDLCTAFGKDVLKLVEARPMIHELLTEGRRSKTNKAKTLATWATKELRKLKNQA

B1: His-tagged H1.0 C-terminal domain (H1C, aas 96–194) (domain or fragment, human, UniProt P07305 96-194, looked up)
chain: AKSDEPKKSVAFKKTKKEIKKVATPKKASKPKKAASKAPTKKPKATPVKKAKKKLAATPKKAKKPKTVKAKPVKASKPKKAKPVKPKAKSSAKRAGKKK
As to B1, the binding result is recorded as “binds”.

B2: Nsp1_FG (497–608), construct containing five FG repeats from nucleoporin Nsp1 (domain or fragment)
chain: not shown
As for B2, the binding result is “binds”.
